Paper PMC9035363

What was measured:
[1] = molecular target: SARS-CoV-2 S B.1.1.7 on CHO cells (SARS-CoV-2) (UniProt P0DTC2)
[2] = molecular target: SARS-CoV-2 S B.1.351 on CHO cells (SARS-CoV-2) (UniProt P0DTC2)

“LY-CoV1404 (bebtelovimab), full-length human IgG1 mAb (antibody)” was tested, and the VSV pseudovirus neutralisation IC50 [1] was 1 ng/mL, the VSV pseudovirus neutralisation IC90 [1] was 9 ng/mL and the lentiviral pseudovirus neutralisation IC50 [1] was 4 ng/mL. It also gave a lentiviral pseudovirus neutralisation IC90 [1] of 11 ng/mL, a VSV pseudovirus neutralisation IC50 [2] of 2 ng/mL and a VSV pseudovirus neutralisation IC90 [2] of 9 ng/mL. For the same substance, the lentiviral pseudovirus neutralisation IC50 [2] was 3 ng/mL and the lentiviral pseudovirus neutralisation IC90 [2] was 9 ng/mL.
